The data set has as its system MS2 coat protein. Put plainly: apparent KD of MS2 coat protein; designed switch direction (-1 OFF switch, 1 ON switch): -1; higher = weaker reporter binding. In short, it runs like this: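 Apparent KD, taken as the median over clusters for each design, was obtained by curve-fitting normalised cluster fluorescence. Designed RNA switches had been transcribed on Illumina chips by stalled E. coli RNA polymerase and titrated with SNAP-549-labelled MS2 coat protein, doubling from 0.7 or 1.5 nM to 3 µM.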

Setting [1] is: Eterna round: R95, input ligand: FMN 200 uM.
[2] abbreviates: Eterna round: R95, input ligand: microRNA oligo, concentration not stated.
Where [3] appears, read: Eterna round: R95, input ligand: none.
Where [4] appears, read: input ligand: microRNA oligo, concentration not stated.

The values below come from the supplement of paper PMC9170038.

With “AAACACGGAGGAUAUGGUCACUAGGACAUGAGGAUCACCCAUGUGGGAGUGCUAGUGCUACCAGAAGGUUGAAGUC [Eternabot (L1) Solution 54] (Eterna round: R97, puzzle: Exclusion 5)”, the “apparent KD of MS2 coat protein” value (input ligand: FMN 200 uM) came out at 0.0666 µM and the “apparent KD of MS2 coat protein” value (input ligand: none) was 0.0761 µM.
“AAACAGCGAGGAUAUGCAGACGCUCCUUCCUCACGUCAAGGACAUGAGGAUCACCCAUGUAGAAGGCGCACAAC [Isriteti] (Eterna round: R97, puzzle: Exclusion 2)”: the “apparent KD of MS2 coat protein” value is 0.116 µM (input ligand: FMN 200 uM) and 0.076 µM (input ligand: none).
Regarding “AAACCUGCCCAUGACCGCAAGCUUUUUGCUUGUCUUACCACAUGAGGAUCACCCAUGUGACAUGGGCUCCUUAUAAA [Usteorrila] (puzzle: Sensor v3, turn-off variant 2)”, the “apparent KD of MS2 coat protein” value under setting [1] is 0.0127 µM, the “apparent KD of MS2 coat protein” value under setting [2] was determined as 0.00984 µM and the “apparent KD of MS2 coat protein” value under setting [3] was 0.0115 µM.
As to “AAACCUUGUGUCAGGAUAUGCAGAGGGAACGCCAGGCAGAAGGGACAUGAGGAUCACCCAUGUACAUUUUAAAC [BmEX4 B.19] (Eterna round: R97, puzzle: Brourd's mod of Exclusion 4)”, the “apparent KD of MS2 coat protein” value was determined as 0.487 µM (input ligand: FMN 200 uM) and 0.0392 µM (input ligand: none).
Turning to “AAACGGCAGGGAGGAUAUGCUUACCUGGGUCGUCUUCAAACAUGAGGAUCACCCAUGUAGUCGACGCAGAAGGCCCUCAAAGCC [JL ViennaUCT Ontiis mod] (Eterna round: R96, puzzle: Exclusion NG 2)”, the “apparent KD of MS2 coat protein” value (input ligand: FMN 200 uM) was determined as 0.144 µM, the “apparent KD of MS2 coat protein” value under setting [4] amounted to 0.018 µM and the “apparent KD of MS2 coat protein” value (input ligand: none) was 0.0186 µM.
Take “AAAGAACUAGGAUAUCGCGCUACAGACAUGAGGAUCACCCAUGUAAUCGCAUGUCAAGUUUGAGAAGGAGUGAAGA [Usissodi] (puzzle: Exclusion 5)”: the “apparent KD of MS2 coat protein” value under setting [1] was determined as 0.0215 µM, the “apparent KD of MS2 coat protein” value under setting [2] is 0.0119 µM and the “apparent KD of MS2 coat protein” value under setting [3] stood at 0.0099 µM.
As to “AAAGAAGAGAGAAAAUAACACAUGAGGAUCACCCAUGUGAGAAGUUGAGGGUGAUACAGGCUUUUUGCUCGUCUUAU (puzzle: Sensor v3, turn-off variant 1)”, the “apparent KD of MS2 coat protein” value is 0.233 µM under setting [1], 0.263 µM under setting [2] and 0.332 µM under setting [3].
On to “AAAGAUCAAGGAUAUGCAACGGCACACAUGAGGAUCACCCAUGUGAUGUACGUUGUGUCGGCAGAAGGUGAGGGUC [JR_Ex5_Sub056] (Eterna round: R97, puzzle: Exclusion 5)”, for which the “apparent KD of MS2 coat protein” value runs as follows: (input ligand: FMN 200 uM) 0.0138 µM; (input ligand: none) 0.0143 µM.
As to “AAAGGACGAUUAGGAUAUUCGGUUCAAGGUAAAGAAGAAGGAAUCGUUCCAUACUUAACAUGAGGAUCACCCAUGUGGGUCUAG [Eternabot solution 38] (Eterna round: R96, puzzle: Exclusion NG 1)”, the “apparent KD of MS2 coat protein” value under setting [4] is 0.0255 µM.
For the sequence “AAAGUGUGAGGAUAUCCUGGGCUGGGCCGGGAGGUUCGGUUGGAGAAGGCACAUGAGGAUCACCCAUGUAACGG [Excls4-IX] (puzzle: Exclusion 4)”, the “apparent KD of MS2 coat protein” value under setting [2] stood at 0.0571 µM.
As for “AAAUACAAGCAAAGAUCUUACAUGAGGAUCACCCAUGUGCUCGUCUUAUAAAGUACUAUCACGAAAGUGAUAGUACA [Sensor 3, v1 - 29] (puzzle: Sensor v3, turn-off variant 1)”, the “apparent KD of MS2 coat protein” value under setting [1] was found to be 0.0195 µM, the “apparent KD of MS2 coat protein” value under setting [2] is 0.108 µM and the “apparent KD of MS2 coat protein” value under setting [3] was 0.0191 µM.
Regarding “AAAUAGCAUGAGGAUAUUGAACUGUAUUCAGUACGAGAAGGCAUGACAUGAGGAUCACCCAUGUUUUGUUGGGA [EX6 #5] (Eterna round: R97, puzzle: Exclusion 6)”, the “apparent KD of MS2 coat protein” value (input ligand: FMN 200 uM) was 0.126 µM and the “apparent KD of MS2 coat protein” value (input ligand: none) came to 0.027 µM.
Regarding “AAAUAGGCAGGAUAUACAUGAGGAUCACCCAUGUAAAUUUUUCGUUUAACUUGAAUGUGUAGAAGGGCCAUAAA [Ex3 #54] (Eterna round: R97, puzzle: Exclusion 3)”, the “apparent KD of MS2 coat protein” value turned out to be 0.0274 µM (input ligand: FMN 200 uM) and 0.0268 µM (input ligand: none).
For “AAAUAGGUAGGAUAUACAUGAGGAUCACCCAUGUGCUGCCGCGCGUCAAUCUCUUCACGUAGAAGGGCCCAGAC [Reveara] (Eterna round: R97, puzzle: Exclusion 3)”, the “apparent KD of MS2 coat protein” value was found to be 0.0131 µM (input ligand: FMN 200 uM) and 0.0141 µM (input ligand: none).
“AAAUCACAUGAGGAUCACCCAUGUGAGGAUAUGAUACUAUGUACUUCGGUACAUAGUAUCAGAAGGCAUGUGGA [Ex1-3: 89] (Eterna round: R96, puzzle: Exclusion 1)”: the “apparent KD of MS2 coat protein” value is, setting by setting: (input ligand: FMN 200 uM) 0.0432 µM; under setting [4], 0.0226 µM; (input ligand: none) 0.0295 µM.
On to “AAAUCACAUGAGGAUCACCCAUGUGAGGAUAUGAUACUAUGUACUUCGGUACAUAGUAUCAGAAGGCAUGUGGA [Ex1-3: 89] (puzzle: Exclusion 1)”, for which the “apparent KD of MS2 coat protein” value under setting [2] came to 0.0282 µM.
As to “AAAUCGUGAGGAUAUCCAAUAUAUGACAUGAGGAUCACCCAUGUUUCCACUCGUACCUCCGGAGAAGGCACAAUAA [Ex5 #75] (Eterna round: R97, puzzle: Exclusion 5)”, the “apparent KD of MS2 coat protein” value by setting is: (input ligand: FMN 200 uM) 0.0272 µM; (input ligand: none) 0.0271 µM.
